Results on one molecule are retold here after US20060239998A1 (D COLLEN RESEARCH FOUNDATION VZW, published 2006).

In the assay the target is human monoclonal antibody BO2C11, FVIII-specific IgG4kappa inhibitory antibody against the C2 domain. The assay is described as follows: cell-based or functional assay.

B1: Fab fragments of Ab 14C12 (Fab, V domains shown)
VH: EVQLQQSGPELVKPGASVKLSCKASGYTFTSSVMHWLKQKSGQGLEWIGYINPYNDGTKYNEKFTAKATLTSDKSSSTVYMELSGLTSEDFAVYYCARSGGLLRGYWYFDVWGAGTTVTVSS
VL: DLVLTQSPATLSVTPGDSVSLSCRASQDITNTLHWYHQKSHESPRLLIKYVSQSISGIPSRFSGSGSGTVFTLSINSVETEDFGVYFCQQSTSWPYTFGGGTKLEIKR
B1: the “neutralisation of BO2C11 inhibitory activity (chromogenic assay)” value is 50 % neutralisation at 1/8 BO2C11/Fab molar ratio.
